Measurements published in patent publication US20240139329A1 (CALIFORNIA INSTITUTE OF TECHNOLOGY, published 2024).

T1: Human Adeno-Associated Virus Receptor (AAVR) PKD2 domain (AA 401-498) tagged with 6×His (human, UniProt Q8IZA0 401-498)
T1 construct: range 401-498; also called human AAVR PDK2 domain
T1 sequence: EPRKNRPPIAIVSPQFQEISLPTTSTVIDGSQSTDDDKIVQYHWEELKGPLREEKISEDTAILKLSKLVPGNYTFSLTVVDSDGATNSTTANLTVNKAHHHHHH

B1: AAV9-X1.1 (other)
chain: MAADGYLPDWLEDNLSEGIREWWALKPGAPQPKANQQHQDNARGLVLPGYKYLGPGNGLDKGEPVNAADAAALEHDKAYDQQLKAGDNPYLKYNHADAEFQERLKEDTSFGGNLGRAVFQAKKRLLEPLGLVEEAAKTAPGKKRPVEQSPQEPDSSAGIGKSGAQPAKKRLNFGQTGDTESVPDPQPIGEPPAAPSGVGSLTMASGGGAPVADNNEGADGVGSSSGNWHCDSQWLGDRVITTSTRTWALPTYNNHLYKQISNSTSGGSSNDNAYFGYSTPWGYFDFNRFHCHFSPRDWQRLINNNWGFRPKRLNFKLFNIQVKEVTDNNGVKTIANNLTSTVQVFTDSDYQLPYVLGSAHEGCLPPFPADVFMIPQYGYLTLNDGSQAVGRSSFYCLEYFPSQMLRTGNNFQFSYEFENVPFHSSYAHSQSLDRLMNPLIDQYLYYLSRTIDGAATKNQTLKFSVAGPSNMAVQGRNYIPGPSYRQQRVSTTVTQNNNSEFAWPGASSWALNGRNSLMNPGPAMASHKEGEDRFFPLSGSLIFGKQGTGRDNVDADKVMITNEEEIKTTNPVATESYGQVATNHQSAQGNNTRSVAQAQTGWVQNQGILPGMVWQDRDVYLQGPIWAKIPHTDGNFHPSPLMGGFGMKHPPPQILIKNTPVPADPPTAFNKDKLNSFITQYSTGQVSVEIEWELQKENSKRWNPEIQYTSNYYKSNNVEFAVNTEGVYSEPRPIGTRYLTRNL
notes: also called AAV-X1.1; X1B10
B2: AAV.CAP-Mac (other)
chain: MAADGYLPDWLEDNLSEGIREWWALKPGAPQPKANQQHQDNARGLVLPGYKYLGPGNGLDKGEPVNAADAAALEHDKAYDQQLKAGDNPYLKYNHADAEFQERLKEDTSFGGNLGRAVFQAKKRLLEPLGLVEEAAKTAPGKKRPVEQSPQEPDSSAGIGKSGAQPAKKRLNFGQTGDTESVPDPQPIGEPPAAPSGVGSLTMASGGGAPVADNNEGADGVGSSSGNWHCDSQWLGDRVITTSTRTWALPTYNNHLYKQISNSTSGGSSNDNAYFGYSTPWGYFDFNRFHCHFSPRDWQRLINNNWGFRPKRLNFKLFNIQVKEVTDNNGVKTIANNLTSTVQVFTDSDYQLPYVLGSAHEGCLPPFPADVFMIPQYGYLTLNDGSQAVGRSSFYCLEYFPSQMLRTGNNFQFSYEFENVPFHSSYAHSQSLDRLMNPLIDQYLYYLSRTINGSGQNQQTLKFSVAGPSNMAVQGRNYIPGPSYRQQRVSTTVTQNNNSEFAWPGASSWALNGRNSLMNPGPAMASHKEGEDRFFPLSGSLIFGKQGTGRDNVDADKVMITNEEEIKTTNPVATESYGQVATNHQSAQLNTTKPIAQAQTGWVQNQGILPGMVWQDRDVYLQGPIWAKIPHTDGNFHPSPLMGGFGMKHPPPQILIKNTPVPADPPTAFNKDKLNSFITQYSTGQVSVEIEWELQKENSKRWNPEIQYTSNYYKSNNVEFAVNTEGVYSEPRPIGTRYLTRNL
notes: also called CAP-C1

Tests used:
[1] = biological target: T1, Human Adeno-Associated Virus Receptor …; assay: pull-down, His-tagged bait on Ni-NTA, AAV prey, Western blot (FIG. 21)
[2] = biological target: T2, human GP2 (AA 1-518) triple tagged with Fc-Myc-6×His (human, UniProt P55259 29-518); assay: validated interaction (cell culture potency assay and/or SPR)
T2 construct: also called human GP2-Fc; not shown: Fc and Myc tags
T2 sequence (P55259 29-518): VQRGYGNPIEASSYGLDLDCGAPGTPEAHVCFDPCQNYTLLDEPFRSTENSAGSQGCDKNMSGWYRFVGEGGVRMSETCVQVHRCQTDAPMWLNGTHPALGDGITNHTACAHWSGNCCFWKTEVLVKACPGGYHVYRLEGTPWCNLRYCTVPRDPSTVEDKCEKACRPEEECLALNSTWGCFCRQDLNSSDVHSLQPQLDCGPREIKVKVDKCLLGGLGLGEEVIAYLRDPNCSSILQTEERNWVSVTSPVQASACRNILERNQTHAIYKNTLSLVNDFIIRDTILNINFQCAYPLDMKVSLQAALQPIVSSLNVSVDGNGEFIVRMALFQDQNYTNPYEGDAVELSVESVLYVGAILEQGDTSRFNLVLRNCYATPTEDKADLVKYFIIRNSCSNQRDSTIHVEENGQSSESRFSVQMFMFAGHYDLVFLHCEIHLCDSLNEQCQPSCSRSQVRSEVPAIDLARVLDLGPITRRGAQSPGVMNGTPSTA

[3] = biological target: T3, human low-density lipoprotein receptor-related protein 6 (LRP6), on cells (human, UniProt O75581 20-1613); assay: cell microarray screen hit (membrane)
T3 construct: also called hLRP6
Method: After these controls, the six-capsid pool was tested in a full screen of approximately 6400 proteins, including 6000 human plasma membrane proteins and secreted and cell surface-tethered proteins, as well as approximately 400 heterodimers. […] To assign these hits to specific capsids, follow-up deconvolution screens were performed with each individual capsid from the pool (FIG. 12E). DNA oligos for the 22 identified hits, as well as the positive control CD86, were affixed in duplicate locations to new slides. A negative control condition with no AAV analyte and a positive control condition with CTLA4-Fc (CD86 binder) were also included.

[4] = biological target: T3, human low-density lipoprotein …; assay: cell microarray screen

Row | Binder | binding result [1] | binding result [2] | binding result [3] | binding result [4]
1 | B1 | binds | binds | binds | –
2 | B2 | binds | – | – | binds
